Experimental data reported in patent publication US20150299328A1.

Target: HIR extracellular domain (ECD) (human) (UniProt P06213)
Assay: ELISA, HIR ECD plated

- EC50: 0.75 nM
Substance: CHO-derived HIRMAb-IDUA fusion protein (antibody)
